Measurements as given in publication PMC5567992.

Assays:
[1] = molecular target: MBP-CNTNW^T243C,C364S,K388C (outward-facing cross-linking mutant) (Neisseria wadsworthii); test: cross-linking
[2] = molecular target: CNTNW^N149S,F366A (Neisseria wadsworthii); test: crystal structure
[3] = molecular target: CNTNW^N149L, SeMet labelled (Neisseria wadsworthii); test: crystal structure
[4] = molecular target: concentrative nucleoside transporter from Neisseria wadsworthii (CNTNW), wild type (Neisseria wadsworthii); test: crystal structure
[5] = molecular target: CNTNW^N149L (Neisseria wadsworthii); test: crystal structure
[6] = molecular target: CNTNW^N149S,E332A (Neisseria wadsworthii); test: crystal structure
[7] = molecular target: MBP-CNTNW^T243C,C364S,A373C (inward-facing cross-linking mutant) (Neisseria wadsworthii); test: cross-linking

Work on “MBP-CNTNW^T243C,C364S,K388C (outward-facing cross-linking mutant) (natural protein)” yielded a stoichiometry N [1] of 3.

In the case of CNTNW^N149S,F366A (natural protein), the stoichiometry N [2] is reported as 3.

With “CNTNW^N149L, SeMet labelled (natural protein)” the stoichiometry N [3] was 3.

“concentrative nucleoside transporter from Neisseria wadsworthii (CNTNW), wild type (natural protein)” gave a stoichiometry N [4] of 3.

CNTNW^N149L (natural protein) showed a stoichiometry N [5] of 3.

For CNTNW^N149S,E332A (natural protein), the stoichiometry N [6] was 3.

“MBP-CNTNW^T243C,C364S,A373C (inward-facing cross-linking mutant) (natural protein)” showed a stoichiometry N [7] of 3.
